The values below are quoted from earlier work in publication PMC8538444.

What is called Kd is a measure of binding affinity in units of concentration.

In the series the target is SP-BN N-terminal saposin-like segment of the SP-B proprotein (Homo sapiens) (UniProt P07988).
Chain of UniProt P07988 (P07988 65-147): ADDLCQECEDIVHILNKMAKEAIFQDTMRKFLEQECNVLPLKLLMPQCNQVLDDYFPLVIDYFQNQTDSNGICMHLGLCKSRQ

For the substance SP-A (from UniProt Q8IWL2), the Kd is 400 nM.
